Laboratory results: publication PMC10786891, “Massively parallel profiling of RNA-targeting CRISPR-Cas13d”

Target: T1, EsCas13d, nuclease-dead (Eubacterium siraeum, UniProt B0MS50, R295A;H300A;R849A;H854A)
T1 sequence: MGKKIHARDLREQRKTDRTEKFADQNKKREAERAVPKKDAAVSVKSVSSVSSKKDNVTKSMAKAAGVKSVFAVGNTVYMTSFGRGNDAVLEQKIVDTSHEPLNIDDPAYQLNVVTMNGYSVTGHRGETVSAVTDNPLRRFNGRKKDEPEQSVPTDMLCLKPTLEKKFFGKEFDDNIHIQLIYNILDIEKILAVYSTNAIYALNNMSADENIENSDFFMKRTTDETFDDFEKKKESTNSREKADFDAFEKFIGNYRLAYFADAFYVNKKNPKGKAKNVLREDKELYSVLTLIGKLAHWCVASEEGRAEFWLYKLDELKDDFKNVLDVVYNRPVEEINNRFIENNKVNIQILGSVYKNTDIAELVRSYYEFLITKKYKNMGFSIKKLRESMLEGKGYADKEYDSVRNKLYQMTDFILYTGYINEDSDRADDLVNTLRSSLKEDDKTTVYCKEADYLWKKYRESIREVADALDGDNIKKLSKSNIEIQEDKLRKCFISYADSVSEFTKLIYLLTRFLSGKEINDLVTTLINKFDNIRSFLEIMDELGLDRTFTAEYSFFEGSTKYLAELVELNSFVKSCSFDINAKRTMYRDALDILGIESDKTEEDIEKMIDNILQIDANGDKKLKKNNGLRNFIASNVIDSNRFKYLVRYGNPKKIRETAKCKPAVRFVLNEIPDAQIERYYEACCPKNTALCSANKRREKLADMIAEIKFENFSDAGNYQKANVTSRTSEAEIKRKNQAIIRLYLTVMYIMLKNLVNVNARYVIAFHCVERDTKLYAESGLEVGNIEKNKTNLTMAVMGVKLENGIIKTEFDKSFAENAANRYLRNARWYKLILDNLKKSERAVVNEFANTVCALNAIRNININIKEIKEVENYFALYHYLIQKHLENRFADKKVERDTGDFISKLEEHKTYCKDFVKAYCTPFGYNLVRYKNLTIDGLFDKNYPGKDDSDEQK
Assay: crRNA (strand 1, pre-loaded); Mg2+; 40 mM Tris-HCl pH 7.5, 150 mM NaCl, 6 mM MgCl2, 1 mM DTT, 0.1% Tween-20, 0.2 mg/ml BSA; 25 C; 10 min per concentration, then washed
Conditions: tags: His6-TwinStrep-SUMO cleaved; N-terminal SNAP kept (SNAP-Surface 488); label: 3' end held by stalled T7 RNA polymerase

| Binder | Kd [nM] |
| --- | --- |
| target 1 G15U,G17A (mixed) RNA 1: CACCCGUGCAAAAAUGCAGGGGUCUAAAACUGAGCGGAUAACCUCUCUAUGG RNA 2: GGGAAUGGAUCCACAUCUACGAAUUCGUACCAUAAAUAGGUUAUCCGCUCACCGAGAUCGGAAGAGCACACGU | 53 ± 5 |
| target 1 insG 3' of 10,insG 3' of 10 (mixed) RNA 1: CACCCGUGCAAAAAUGCAGGGGUCUAAAACUGAGCGGAUAACCUCUCUAUGG RNA 2: GGGAAUGGAUCCACAUCUACGAAUUCGUACCAUAGAGAGGUUGGAUCCGCUCACCGAGAUCGGAAGAGCACACGU | 21.8 ± 2.2 |
| target 3 insA 3' of 15,insU 3' of 3 (mixed) RNA 1: CACCCGUGCAAAAUUGCAGGGGUCUAAAACGACCUGAAUAUUUCAGAUCAAA RNA 2: GGGAAUGGAUCCACAUCUACGAAUUCGUUUUUGAUCUAGAAAUAUUCAGGUUCUGCAGAUCGGAAGAGCACACGU | 59.5 ± 12.5 |
| target 3 del6 (mixed) RNA 1: CACCCGUGCAAAAUUGCAGGGGUCUAAAACGACCUGAAUAUUUCAGAUCAAA RNA 2: GGGAAUGGAUCCACAUCUACGAAUUCGUUUUUGAUCUGAAAUAUUAGGUCUGCAGAUCGGAAGAGCACACGU | 38.4 ± 3.55 |
| target 3 insA 3' of 2,insG 3' of 1 (mixed) RNA 1: CACCCGUGCAAAAUUGCAGGGGUCUAAAACGACCUGAAUAUUUCAGAUCAAA RNA 2: GGGAAUGGAUCCACAUCUACGAAUUCGUUUUUGAUCUGAAAUAUUCAGGUACGUGCAGAUCGGAAGAGCACACGU | 36 ± 9 |
| target 3 insU 3' of 22,insC 3' of 22 (mixed) RNA 1: CACCCGUGCAAAAUUGCAGGGGUCUAAAACGACCUGAAUAUUUCAGAUCAAA RNA 2: GGGAAUGGAUCCACAUCUACGAAUUCGUUUUCUUGAUCUGAAAUAUUCAGGUCUGCAGAUCGGAAGAGCACACGU | 39.5 ± 6 |
| target 3 insC 3' of 7,insA 3' of 7 (mixed) RNA 1: CACCCGUGCAAAAUUGCAGGGGUCUAAAACGACCUGAAUAUUUCAGAUCAAA RNA 2: GGGAAUGGAUCCACAUCUACGAAUUCGUUUUUGAUCUGAAAUAUUCACAGGUCUGCAGAUCGGAAGAGCACACGU | 11 ± 1.4 |
| target 3 insG 3' of 8,insG 3' of 6 (mixed) RNA 1: CACCCGUGCAAAAUUGCAGGGGUCUAAAACGACCUGAAUAUUUCAGAUCAAA RNA 2: GGGAAUGGAUCCACAUCUACGAAUUCGUUUUUGAUCUGAAAUAUGUCGAGGUCUGCAGAUCGGAAGAGCACACGU | 31.6 ± 2.7 |
| target 3 U7A,A18G (mixed) RNA 1: CACCCGUGCAAAAUUGCAGGGGUCUAAAACGACCUGAAUAUUUCAGAUCAAA RNA 2: GGGAAUGGAUCCACAUCUACGAAUUCGUUUUUGGUCUGAAAUAUACAGGUCUGCAGAUCGGAAGAGCACACGU | 49 ± 6 |
| target 3 insG 3' of 5,insA 3' of 2 (mixed) RNA 1: CACCCGUGCAAAAUUGCAGGGGUCUAAAACGACCUGAAUAUUUCAGAUCAAA RNA 2: GGGAAUGGAUCCACAUCUACGAAUUCGUUUUUGAUCUGAAAUAUUCAGGGUACUGCAGAUCGGAAGAGCACACGU | 39 ± 6 |
| target 3 insC 3' of 9,insU 3' of 5 (mixed) RNA 1: CACCCGUGCAAAAUUGCAGGGGUCUAAAACGACCUGAAUAUUUCAGAUCAAA RNA 2: GGGAAUGGAUCCACAUCUACGAAUUCGUUUUUGAUCUGAAAUACUUCAUGGUCUGCAGAUCGGAAGAGCACACGU | 76.5 ± 12.5 |
| target 3 insC 3' of 7,insA 3' of 3 (mixed) RNA 1: CACCCGUGCAAAAUUGCAGGGGUCUAAAACGACCUGAAUAUUUCAGAUCAAA RNA 2: GGGAAUGGAUCCACAUCUACGAAUUCGUUUUUGAUCUGAAAUAUUCCAGGAUCUGCAGAUCGGAAGAGCACACGU | 68 ± 14 |
| target 3 insG 3' of 2,insG 3' of 2 (mixed) RNA 1: CACCCGUGCAAAAUUGCAGGGGUCUAAAACGACCUGAAUAUUUCAGAUCAAA RNA 2: GGGAAUGGAUCCACAUCUACGAAUUCGUUUUUGAUCUGAAAUAUUCAGGUGGCUGCAGAUCGGAAGAGCACACGU | 22 ± 2.05 |
| target 3 U2G,U20C (mixed) RNA 1: CACCCGUGCAAAAUUGCAGGGGUCUAAAACGACCUGAAUAUUUCAGAUCAAA RNA 2: GGGAAUGGAUCCACAUCUACGAAUUCGUUUUCGAUCUGAAAUAUUCAGGGCUGCAGAUCGGAAGAGCACACGU | 50 ± 19 |
| target 3 insA 3' of 21,insC 3' of 3 (mixed) RNA 1: CACCCGUGCAAAAUUGCAGGGGUCUAAAACGACCUGAAUAUUUCAGAUCAAA RNA 2: GGGAAUGGAUCCACAUCUACGAAUUCGUUUUAUGAUCUGAAAUAUUCAGGCUCUGCAGAUCGGAAGAGCACACGU | 35 ± 5 |
| target 3 insU 3' of 9,insG 3' of 7 (mixed) RNA 1: CACCCGUGCAAAAUUGCAGGGGUCUAAAACGACCUGAAUAUUUCAGAUCAAA RNA 2: GGGAAUGGAUCCACAUCUACGAAUUCGUUUUUGAUCUGAAAUAUUUGCAGGUCUGCAGAUCGGAAGAGCACACGU | 84.5 ± 18.5 |
| target 3 insG 3' of 6,insA 3' of 6 (mixed) RNA 1: CACCCGUGCAAAAUUGCAGGGGUCUAAAACGACCUGAAUAUUUCAGAUCAAA RNA 2: GGGAAUGGAUCCACAUCUACGAAUUCGUUUUUGAUCUGAAAUAUUCGAAGGUCUGCAGAUCGGAAGAGCACACGU | 8.8 ± 0.75 |
| target 3 U2G,U22C (mixed) RNA 1: CACCCGUGCAAAAUUGCAGGGGUCUAAAACGACCUGAAUAUUUCAGAUCAAA RNA 2: GGGAAUGGAUCCACAUCUACGAAUUCGUUCUUGAUCUGAAAUAUUCAGGGCUGCAGAUCGGAAGAGCACACGU | 19.8 ± 3.55 |
| target 3 C1U,G3A (mixed) RNA 1: CACCCGUGCAAAAUUGCAGGGGUCUAAAACGACCUGAAUAUUUCAGAUCAAA RNA 2: GGGAAUGGAUCCACAUCUACGAAUUCGUUUUUGAUCUGAAAUAUUCAGAUUUGCAGAUCGGAAGAGCACACGU | 45 ± 10.5 |
| target 3 insU 3' of 9,insA 3' of 7 (mixed) RNA 1: CACCCGUGCAAAAUUGCAGGGGUCUAAAACGACCUGAAUAUUUCAGAUCAAA RNA 2: GGGAAUGGAUCCACAUCUACGAAUUCGUUUUUGAUCUGAAAUAUUUACAGGUCUGCAGAUCGGAAGAGCACACGU | 51 ± 10.5 |
| target 3 C1A,U2C (mixed) RNA 1: CACCCGUGCAAAAUUGCAGGGGUCUAAAACGACCUGAAUAUUUCAGAUCAAA RNA 2: GGGAAUGGAUCCACAUCUACGAAUUCGUUUUUGAUCUGAAAUAUUCAGGCAUGCAGAUCGGAAGAGCACACGU | 18.6 ± 3.7 |
| target 3 insC 3' of 13,insA 3' of 2 (mixed) RNA 1: CACCCGUGCAAAAUUGCAGGGGUCUAAAACGACCUGAAUAUUUCAGAUCAAA RNA 2: GGGAAUGGAUCCACAUCUACGAAUUCGUUUUUGAUCUGACAAUAUUCAGGUACUGCAGAUCGGAAGAGCACACGU | 70 ± 13 |
| target 3 insC 3' of 15,insC 3' of 11 (mixed) RNA 1: CACCCGUGCAAAAUUGCAGGGGUCUAAAACGACCUGAAUAUUUCAGAUCAAA RNA 2: GGGAAUGGAUCCACAUCUACGAAUUCGUUUUUGAUCUCGAAACUAUUCAGGUCUGCAGAUCGGAAGAGCACACGU | 46 ± 4 |
| target 3 A9U (mixed) RNA 1: CACCCGUGCAAAAUUGCAGGGGUCUAAAACGACCUGAAUAUUUCAGAUCAAA RNA 2: GGGAAUGGAUCCACAUCUACGAAUUCGUUUUUGAUCUGAAAUUUUCAGGUCUGCAGAUCGGAAGAGCACACGU | ~120 |
| target 3 C6G,U7A (mixed) RNA 1: CACCCGUGCAAAAUUGCAGGGGUCUAAAACGACCUGAAUAUUUCAGAUCAAA RNA 2: GGGAAUGGAUCCACAUCUACGAAUUCGUUUUUGAUCUGAAAUAUAGAGGUCUGCAGAUCGGAAGAGCACACGU | 48.5 ± 5.5 |
| target 3 C1G,A5U (mixed) RNA 1: CACCCGUGCAAAAUUGCAGGGGUCUAAAACGACCUGAAUAUUUCAGAUCAAA RNA 2: GGGAAUGGAUCCACAUCUACGAAUUCGUUUUUGAUCUGAAAUAUUCUGGUGUGCAGAUCGGAAGAGCACACGU | 10.1 ± 1.55 |
| target 3 insC 3' of 9,insC 3' of 3 (mixed) RNA 1: CACCCGUGCAAAAUUGCAGGGGUCUAAAACGACCUGAAUAUUUCAGAUCAAA RNA 2: GGGAAUGGAUCCACAUCUACGAAUUCGUUUUUGAUCUGAAAUACUUCAGGCUCUGCAGAUCGGAAGAGCACACGU | 88 ± 24.5 |
| target 3 C16U,U22A (mixed) RNA 1: CACCCGUGCAAAAUUGCAGGGGUCUAAAACGACCUGAAUAUUUCAGAUCAAA RNA 2: GGGAAUGGAUCCACAUCUACGAAUUCGUUAUUGAUUUGAAAUAUUCAGGUCUGCAGAUCGGAAGAGCACACGU | 70 ± 11 |
